From patent publication US20090304706A1
Values belong to the molecule of their own block, whether it stands above or below them.

Biological target: human CD40 (human) (UniProt P25942)
Assay: Biacore (SPR)

Sequence of UniProt P25942 (P25942 20-193 limits assumed): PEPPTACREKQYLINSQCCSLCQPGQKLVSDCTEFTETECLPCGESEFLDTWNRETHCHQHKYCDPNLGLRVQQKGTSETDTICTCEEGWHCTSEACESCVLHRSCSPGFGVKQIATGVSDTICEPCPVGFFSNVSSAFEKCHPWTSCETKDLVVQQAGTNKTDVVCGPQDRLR

Kd: 0.5 nM
Molecule: monoclonal antibody CHIR-12.12

Kd: 12 nM
B1: monoclonal antibody CHIR-5.9 (antibody, human IgG1, kappa, V domains shown)
VH: EVQLVQSGAEVKKPGESLKISCKGSGYSFTSYWIGWVRQMPGKGLEWMGIIYPGDSDTRYSPSFQGQVTISADKSISTAYLQWSSLKASDTAMYYCARGTAAGRDYYYYYGMDVWGQGTTVTVSS
VL: AIVMTQPPLSSPVTLGQPASISCRSSQSLVHSDGNTYLNWLQQRPGQPPRLLIYKFFRRLSGVPDRFSGSGAGTDFTLKISRVEAEDVGVYYCMQVTQFPHTFGQGTRLEIKR
